Legend:
[1] = substrate: CO[C@@H]1O[C@H](CO)[C@H](O)[C@H](O)[C@H]1O; assay: purified protein; assay type: biochemical, Fusarium sambucinum; settings: O2 at air saturation, 20 mM potassium phosphate pH 7.0, 30 °C, Cu-activated enzyme
[2] = substrate: OC[C@H]1O[C@H](OC[C@H]2O[C@H](O[C@]3(CO)O[C@H](CO)[C@@H](O)[C@@H]3O)[C@H](O)[C@@H](O)[C@@H]2O)[C@H](O)[C@@H](O)[C@H]1O; assay: purified protein; assay type: biochemical, Fusarium sambucinum; settings: O2 at air saturation, 20 mM potassium phosphate pH 7.0, 30 °C, Cu-activated enzyme

B1: galactose oxidase (GalOx) of Fusarium sambucinum (Fusarium sambucinum) (protein)
chain: ASAPIGSAISRNNWAVTCDSAQPGNECNKAIDGNRDTFWHTFYGANGDPKPPHTYNIDMKTTQNVNGLSMLPRQDGSQNGWIGRHEVYLSSDGKTWGSPVATGSWFADSTTKYSNFETRPARYVRLVALAEANGQPWTSIAEINVYQASSYTAPQPGLGRWGPTIDLPIVPAAAAIEPTSGRVLMWSSYRNDAFGGSPGGVTLTSSWDPSSGIVSDRTVTVTKHDMFCPGISMDGNGQIVVTGGNDAKKTSLYDSPSDSWVPGPDMQVARGYQSSATMSDGRVFTIGGSWSGGIFEKNGEVYSPSSKTWTSLPNAKVNPMLTADKQGLYRSDNHAWLFGWKKGSVFQAGPSTAMNWYYTSGSGDVKSAGKRQSNRGVAPDAMCGNAVMYDAVQGKILTFGGSPDYQDSDATTNAHIITLGEPGSTPKTVFASNGLYFARTFHTSVVLPDGSTFITGGQRRGIPFEDSTPVLTPEIYVPEQDTFYKQNPNSIVRVYHSISLLLPDGRVFNGGGGLCGDCTTNHFDAQIFTPNYLYDSNGNLATRPKITRTSTQSVKVGGRVTISTDYSIRKASLIRYGTATHTVNTDQRRIPLTLMNNGGNSYSFQVPSDTGIALPGYWMLFVINSAGVPSVASTIRVTQ
notes: C-terminal His6 tag kept (pET21a NdeI/NotI); E. coli BL21(DE3); IMAC
[1]
  Km: 39 ± 1.7 mM
  Vmax: 67 µmol/min/mg
  kcat: 77 s⁻¹
  kcat/Km: 2000 M⁻¹ s⁻¹
[2]
  Km: 20 ± 2.3 mM
  Vmax: 43 µmol/min/mg
  kcat: 49 s⁻¹
  kcat/Km: 2500 M⁻¹ s⁻¹

Source: PMC4370742, “Expression, purification, and characterization of galactose oxidase of Fusarium sambucinum in E. coli” (Protein Expression and Purification, 2015)
